Results reported in article PMC8171356 (Nature structural & molecular biology, 2017).
Where a chain is given by its changes, count along the chain named. Names may count otherwise. Ends that are not written are not given here. * marks the point of attachment. βGlcNAc = CC(=O)N[C@@H]1[C@@H](O)[C@H](O)[C@@H](CO)O[C@H]1*

T1: full-length human O-GlcNAcase (hOGA) (human, UniProt O60502 1-916)
T1 sequence (looked up): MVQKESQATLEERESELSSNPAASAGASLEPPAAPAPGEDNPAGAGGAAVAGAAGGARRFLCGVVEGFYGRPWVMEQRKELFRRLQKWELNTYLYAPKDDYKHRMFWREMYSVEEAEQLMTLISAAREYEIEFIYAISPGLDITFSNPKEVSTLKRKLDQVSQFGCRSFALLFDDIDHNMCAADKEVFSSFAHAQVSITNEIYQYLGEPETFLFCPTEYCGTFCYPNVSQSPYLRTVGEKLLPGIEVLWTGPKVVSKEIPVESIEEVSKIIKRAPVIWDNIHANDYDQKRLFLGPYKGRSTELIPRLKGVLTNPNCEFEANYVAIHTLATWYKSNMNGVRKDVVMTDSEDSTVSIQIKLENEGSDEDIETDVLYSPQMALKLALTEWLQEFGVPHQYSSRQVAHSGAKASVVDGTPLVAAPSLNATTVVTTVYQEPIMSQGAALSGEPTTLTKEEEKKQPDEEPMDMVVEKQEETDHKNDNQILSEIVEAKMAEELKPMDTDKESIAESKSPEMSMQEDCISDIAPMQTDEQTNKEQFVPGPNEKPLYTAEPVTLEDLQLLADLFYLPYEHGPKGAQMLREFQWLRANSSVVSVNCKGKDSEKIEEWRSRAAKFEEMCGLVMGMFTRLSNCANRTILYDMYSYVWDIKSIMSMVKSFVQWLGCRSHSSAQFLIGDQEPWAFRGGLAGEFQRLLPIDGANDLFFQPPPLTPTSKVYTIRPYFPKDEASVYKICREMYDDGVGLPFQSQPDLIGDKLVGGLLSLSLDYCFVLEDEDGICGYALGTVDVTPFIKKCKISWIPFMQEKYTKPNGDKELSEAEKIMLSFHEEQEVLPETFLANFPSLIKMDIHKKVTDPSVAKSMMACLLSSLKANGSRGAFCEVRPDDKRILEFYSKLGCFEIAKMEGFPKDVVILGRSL

B1: OGA_(cryst) (D175N) (domain or fragment, human)
chain: FLCGVVEGFYGRPWVMEQRKELFRRLQKWELNTYLYAPKDDYKHRMFWREMYSVEEAEQLMTLISAAREYEIEFIYAISPGLDITFSNPKEVSTLKRKLDQVSQFGCRSFALLFDNIDHNMCAADKEVFSSFAHAQVSITNEIYQYLGEPETFLFCPTEYCGTFCYPNVSQSPYLRTVGEKLLPGIEVLWTGPKVVSKEIPVESIEEVSKIIKRAPVIWDNIHANDYDQKRLFLGPYKGRSTELIPRLKGVLTNPNCEFEANYVAIHTLATWYKSNMNGVRKDVVMTDSEDSTVSIQIKLENEGSDEDIETDVLYSPQMALKLALTEWLQEFGVPHQYSSRGGGGSGGGGSGGGGSVTLEDLQLLADLFYLPYEHGPKGAQMLREFQWLRANSSVVSVNCKGKDSEKIEEWRSRAAKFEEMCGLVMGMFTRLSNCANRTILYDMYSYVWDIKSIMSMVKSFVQWLGCRSHSSAQFLIGDQEPWAFRGGLAGEFQRLLPIDGANDLFFQ
B2: OGA_(cryst) (truncated hOGA, residues 60-704 with residues 401-552 replaced by a 15-residue glycine-serine linker) (domain or fragment, human)
chain: B1 chain with N116D
B3: O-GlcNAcylated p53 peptide Ac-QLWVDS(O-GlcNAc)TPPPG (peptide)
peptide: Ac-QLWVDS(βGlcNAc)TPPPG

Experiments:
[1] = in vivo; cited from earlier work
crystal structure = target: the molecule itself; test: crystal structure
AUC = target: the molecule itself; test: AUC
OGA_(cryst) (D175N) = target: B1; test: crystal structure
[2] = target: T1, full-length human O-GlcNAcase (hOGA); test: glycopeptide competition assay

Molecule: CCN=C1N[C@@H]2[C@@H](O)[C@H](O)[C@@H](CO)O[C@@H]2S1 [thiamet-G]
blood–brain barrier crossing [1]: can cross the blood–brain barrier

Molecule: B1
binding result (crystal structure): binds

Molecule: B2
stoichiometry N (AUC): 2

Molecule: B3
binding result (OGA_(cryst) (D175N)): binds | binding result [2]: binds
